From patent US9217036

Target: full-length mouse PrP, cellular prion protein PrP^c (mouse) (UniProt P04925)
Sequence (P04925 23-230 limits assumed): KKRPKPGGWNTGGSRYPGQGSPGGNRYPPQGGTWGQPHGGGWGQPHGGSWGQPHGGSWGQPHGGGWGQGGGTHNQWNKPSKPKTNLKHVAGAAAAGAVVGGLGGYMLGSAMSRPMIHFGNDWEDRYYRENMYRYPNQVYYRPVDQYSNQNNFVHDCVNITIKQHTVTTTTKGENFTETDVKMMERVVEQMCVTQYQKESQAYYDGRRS

Q: Which IC50 does the source give for 6D11 anti-PrP mouse monoclonal antibody here?
A: 1 nM
